Data published in patent US20120237966A1.

Molecular target: GI (K607T)-mCherry-CAAX (Arabidopsis thaliana) (UniProt Q9SQI2)
Test: cell-based or functional assay

UniProt Q9SQI2, sequence (Q9SQI2 other isoform, or with tags, fused parts or gaps K607T K607T): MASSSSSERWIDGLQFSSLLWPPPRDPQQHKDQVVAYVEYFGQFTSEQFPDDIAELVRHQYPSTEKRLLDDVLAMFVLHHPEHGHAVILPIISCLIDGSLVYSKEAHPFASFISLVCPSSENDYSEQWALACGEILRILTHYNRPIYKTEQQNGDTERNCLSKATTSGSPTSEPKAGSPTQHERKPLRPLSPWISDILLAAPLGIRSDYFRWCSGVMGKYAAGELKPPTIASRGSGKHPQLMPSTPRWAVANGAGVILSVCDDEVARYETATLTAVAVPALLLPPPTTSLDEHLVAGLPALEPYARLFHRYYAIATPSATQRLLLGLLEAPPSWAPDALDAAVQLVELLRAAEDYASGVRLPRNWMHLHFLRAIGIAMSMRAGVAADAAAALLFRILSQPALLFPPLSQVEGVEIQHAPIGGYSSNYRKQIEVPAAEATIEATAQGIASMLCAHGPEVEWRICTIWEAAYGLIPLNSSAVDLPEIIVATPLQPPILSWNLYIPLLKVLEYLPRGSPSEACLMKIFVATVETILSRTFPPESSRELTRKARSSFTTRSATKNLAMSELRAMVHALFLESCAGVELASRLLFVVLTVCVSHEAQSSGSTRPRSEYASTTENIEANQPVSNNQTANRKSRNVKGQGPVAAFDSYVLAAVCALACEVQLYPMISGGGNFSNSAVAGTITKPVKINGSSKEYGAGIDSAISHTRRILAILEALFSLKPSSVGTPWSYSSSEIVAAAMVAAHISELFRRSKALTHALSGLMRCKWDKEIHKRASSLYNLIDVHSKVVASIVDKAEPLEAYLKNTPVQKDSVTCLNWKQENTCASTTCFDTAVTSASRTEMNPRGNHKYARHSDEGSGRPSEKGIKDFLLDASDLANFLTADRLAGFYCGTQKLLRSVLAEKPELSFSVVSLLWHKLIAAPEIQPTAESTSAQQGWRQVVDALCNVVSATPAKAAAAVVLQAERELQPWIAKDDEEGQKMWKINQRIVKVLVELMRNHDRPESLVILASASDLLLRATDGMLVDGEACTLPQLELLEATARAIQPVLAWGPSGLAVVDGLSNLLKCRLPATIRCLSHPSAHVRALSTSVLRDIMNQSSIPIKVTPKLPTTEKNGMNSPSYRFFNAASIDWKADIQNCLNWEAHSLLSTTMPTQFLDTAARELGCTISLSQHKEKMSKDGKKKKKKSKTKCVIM

percentage of cells with lamellipodia, increase upon illumination	Substance
46%	NES-FKF1(K15T)-YFP-linker-Rac1ca (FKF1-Rac) WT (from UniProt P63000 1-188)
87%	NES-FKF1(K15T)-YFP-linker-Rac1ca (FKF1-Rac) G128D (from UniProt P63000 1-188)
